Target: F-actin (rabbit muscle actin polymerised in vitro) (rabbit) (UniProt P68135)
Assay: co-sedimentation

- Kd: 0.3 µM
Substance: GST-PICK1 (from UniProt Q9EP80 1-416) (natural protein)

Source: article PMC2664613
